Reference: patent publication US20150344570A1 (published 2015)

T1: FcγRIIb (human, UniProt P31994 43-217)
T1 construct: extracellular domain; Soluble extracellular domain with C-terminal His tag, used as analyte; also called FcgRIIb; CD32B; not shown: His tag at the C terminus
T1 sequence (looked up): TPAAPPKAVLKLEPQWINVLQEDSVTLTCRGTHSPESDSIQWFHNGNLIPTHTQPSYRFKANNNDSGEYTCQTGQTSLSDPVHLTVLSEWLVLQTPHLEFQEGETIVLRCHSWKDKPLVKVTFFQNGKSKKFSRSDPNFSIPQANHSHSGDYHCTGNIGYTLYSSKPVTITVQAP


What was measured:
FcγRIIb = biological target: T1, FcγRIIb; assay: SPR (Biacore), captured antibody, FcγR as analyte, relative binding
Experimental: (§1) The heterodimerized antibodies He Abs in which one of the H chains was introduced with an alteration were assayed for their binding activities to each activating FcγR and inhibitory FcγR according to the method described in Example 4. […] The activating FcγRs in FIGS. 26, 27, 28, and 29 are FcγRIa, FcγRIIa (R), FcγRIIa (H), and FcγRIIIa, respectively.
(§2) Analysis of interaction between objective antibody and the FcγR was carried out using Biacore T100 (GE Healthcare). HBS-EP+ (GE Healthcare) was used as the running buffer, and the measurement temperature was set to 25° C. Chips produced by immobilizing the antigen peptide by the amine coupling method to a Series S Sencor Chip CM5 (GE Healthcare), or alternatively, chips produced by allowing preliminarily biotinylated antigen peptides to interact with and immobilize onto a Series S Sensor Chip SA (certified) (GE Healthcare) were used. Antibodies of interest were captured onto an antigen peptide-immobilized chip, and allowed to interact to each FcγR diluted with running buffer. To regenerate and repeatedly use the chip, the antibodies captured on the chip were washed off by reacting 10 mM glycine-HCl, pH 1.5.

FcγRIa = biological target: T2, FcγRIa (human, UniProt P12314 16-292); assay: as above
T2 construct: extracellular domain; Soluble extracellular domain with C-terminal His tag, used as analyte; also called FcgRI; CD64; not shown: His tag at the C terminus
T2 sequence (P12314 16-292): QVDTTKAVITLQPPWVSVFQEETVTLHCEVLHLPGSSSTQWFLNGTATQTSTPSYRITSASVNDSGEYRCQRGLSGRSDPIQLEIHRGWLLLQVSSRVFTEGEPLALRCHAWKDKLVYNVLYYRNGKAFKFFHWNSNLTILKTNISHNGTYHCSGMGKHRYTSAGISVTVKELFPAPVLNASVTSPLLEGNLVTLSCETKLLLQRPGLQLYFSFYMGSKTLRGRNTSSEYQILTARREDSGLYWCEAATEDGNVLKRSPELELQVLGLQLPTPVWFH
Experimental: as §1, §2

Binder	He/Con_2b (FcγRIIb)	He/Con_1a (FcγRIa)
GpH7-A5/GpH7-B3 variant S298_20W/GpL16-k0 (antibody, human IgG1, kappa, He Ab: mutation in one H chain only; also called He Ab) heavy 1: not shown heavy 2: not shown light: DIVMTQSPLSLPVTPGEPASISCQASESLVHSNRNTYLHWYLQKPGQSPQLLIYKVSNRFSGVPDRFSGSGSGTDFTLKISRVEAEDVGVYYCSQNTHVPPTFGQGTKVEIERTVAAPSVFIFPPSDEQLKSGTASVVCLLNNFYPREAKVQWKVDNALQSGNSQESVTEQDSKDSTYSLSSTLTLSKADYEKHKVYACEVTHQGLSSPVTKSFNRGEC	41.1 % of GpH7-A5/GpH7-B3/GpL16-k0	104 % of GpH7-A5/GpH7-B3/GpL16-k0
GpH7-A5/GpH7-B3 variant S324_01G/GpL16-k0 (antibody, human IgG1, kappa, He Ab: mutation in one H chain only; also called He Ab) heavy 1: not shown heavy 2: not shown light: DIVMTQSPLSLPVTPGEPASISCQASESLVHSNRNTYLHWYLQKPGQSPQLLIYKVSNRFSGVPDRFSGSGSGTDFTLKISRVEAEDVGVYYCSQNTHVPPTFGQGTKVEIERTVAAPSVFIFPPSDEQLKSGTASVVCLLNNFYPREAKVQWKVDNALQSGNSQESVTEQDSKDSTYSLSSTLTLSKADYEKHKVYACEVTHQGLSSPVTKSFNRGEC	81.1 % of GpH7-A5/GpH7-B3/GpL16-k0	98.8 % of GpH7-A5/GpH7-B3/GpL16-k0
GpH7-A5/GpH7-B3 variant S298_11K/GpL16-k0 (antibody, human IgG1, kappa, He Ab: mutation in one H chain only; also called He Ab) heavy 1: not shown heavy 2: not shown light: DIVMTQSPLSLPVTPGEPASISCQASESLVHSNRNTYLHWYLQKPGQSPQLLIYKVSNRFSGVPDRFSGSGSGTDFTLKISRVEAEDVGVYYCSQNTHVPPTFGQGTKVEIERTVAAPSVFIFPPSDEQLKSGTASVVCLLNNFYPREAKVQWKVDNALQSGNSQESVTEQDSKDSTYSLSSTLTLSKADYEKHKVYACEVTHQGLSSPVTKSFNRGEC	61.3 % of GpH7-A5/GpH7-B3/GpL16-k0	109 % of GpH7-A5/GpH7-B3/GpL16-k0
GpH7-A5/GpH7-B3 variant S298_18N/GpL16-k0 (antibody, human IgG1, kappa, He Ab: mutation in one H chain only; also called He Ab) heavy 1: not shown heavy 2: not shown light: DIVMTQSPLSLPVTPGEPASISCQASESLVHSNRNTYLHWYLQKPGQSPQLLIYKVSNRFSGVPDRFSGSGSGTDFTLKISRVEAEDVGVYYCSQNTHVPPTFGQGTKVEIERTVAAPSVFIFPPSDEQLKSGTASVVCLLNNFYPREAKVQWKVDNALQSGNSQESVTEQDSKDSTYSLSSTLTLSKADYEKHKVYACEVTHQGLSSPVTKSFNRGEC	48.1 % of GpH7-A5/GpH7-B3/GpL16-k0	108 % of GpH7-A5/GpH7-B3/GpL16-k0
GpH7-A5/GpH7-B3 variant N325_19Q/GpL16-k0 (antibody, human IgG1, kappa, He Ab: mutation in one H chain only; also called He Ab) heavy 1: not shown heavy 2: not shown light: DIVMTQSPLSLPVTPGEPASISCQASESLVHSNRNTYLHWYLQKPGQSPQLLIYKVSNRFSGVPDRFSGSGSGTDFTLKISRVEAEDVGVYYCSQNTHVPPTFGQGTKVEIERTVAAPSVFIFPPSDEQLKSGTASVVCLLNNFYPREAKVQWKVDNALQSGNSQESVTEQDSKDSTYSLSSTLTLSKADYEKHKVYACEVTHQGLSSPVTKSFNRGEC	69.1 % of GpH7-A5/GpH7-B3/GpL16-k0	99.1 % of GpH7-A5/GpH7-B3/GpL16-k0
GpH7-A5/GpH7-B3 variant N325_16H/GpL16-k0 (antibody, human IgG1, kappa, He Ab: mutation in one H chain only; also called He Ab) heavy 1: not shown heavy 2: not shown light: DIVMTQSPLSLPVTPGEPASISCQASESLVHSNRNTYLHWYLQKPGQSPQLLIYKVSNRFSGVPDRFSGSGSGTDFTLKISRVEAEDVGVYYCSQNTHVPPTFGQGTKVEIERTVAAPSVFIFPPSDEQLKSGTASVVCLLNNFYPREAKVQWKVDNALQSGNSQESVTEQDSKDSTYSLSSTLTLSKADYEKHKVYACEVTHQGLSSPVTKSFNRGEC	70.1 % of GpH7-A5/GpH7-B3/GpL16-k0	95.1 % of GpH7-A5/GpH7-B3/GpL16-k0
GpH7-A5/GpH7-B3 variant N325_02A/GpL16-k0 (antibody, human IgG1, kappa, He Ab: mutation in one H chain only; also called He Ab) heavy 1: not shown heavy 2: not shown light: DIVMTQSPLSLPVTPGEPASISCQASESLVHSNRNTYLHWYLQKPGQSPQLLIYKVSNRFSGVPDRFSGSGSGTDFTLKISRVEAEDVGVYYCSQNTHVPPTFGQGTKVEIERTVAAPSVFIFPPSDEQLKSGTASVVCLLNNFYPREAKVQWKVDNALQSGNSQESVTEQDSKDSTYSLSSTLTLSKADYEKHKVYACEVTHQGLSSPVTKSFNRGEC	64.4 % of GpH7-A5/GpH7-B3/GpL16-k0	96.8 % of GpH7-A5/GpH7-B3/GpL16-k0
GpH7-A5/GpH7-B3 variant S298_16H/GpL16-k0 (antibody, human IgG1, kappa, He Ab: mutation in one H chain only; also called He Ab) heavy 1: not shown heavy 2: not shown light: DIVMTQSPLSLPVTPGEPASISCQASESLVHSNRNTYLHWYLQKPGQSPQLLIYKVSNRFSGVPDRFSGSGSGTDFTLKISRVEAEDVGVYYCSQNTHVPPTFGQGTKVEIERTVAAPSVFIFPPSDEQLKSGTASVVCLLNNFYPREAKVQWKVDNALQSGNSQESVTEQDSKDSTYSLSSTLTLSKADYEKHKVYACEVTHQGLSSPVTKSFNRGEC	63.5 % of GpH7-A5/GpH7-B3/GpL16-k0	109 % of GpH7-A5/GpH7-B3/GpL16-k0
GpH7-A5/GpH7-B3 variant S298_09D/GpL16-k0 (antibody, human IgG1, kappa, He Ab: mutation in one H chain only; also called He Ab) heavy 1: not shown heavy 2: not shown light: DIVMTQSPLSLPVTPGEPASISCQASESLVHSNRNTYLHWYLQKPGQSPQLLIYKVSNRFSGVPDRFSGSGSGTDFTLKISRVEAEDVGVYYCSQNTHVPPTFGQGTKVEIERTVAAPSVFIFPPSDEQLKSGTASVVCLLNNFYPREAKVQWKVDNALQSGNSQESVTEQDSKDSTYSLSSTLTLSKADYEKHKVYACEVTHQGLSSPVTKSFNRGEC	48.3 % of GpH7-A5/GpH7-B3/GpL16-k0	106 % of GpH7-A5/GpH7-B3/GpL16-k0
